This is an account of results in article PMC6366860 (Journal of molecular and cellular cardiology, 2018).

As a reminder, the Kd is the equilibrium constant for the complex coming apart.

The target of this experiment is F-actin from rabbit skeletal muscle (rabbit, UniProt P68135 1-377). As to the kind of experiment: co-sedimentation.

B1: mouse short form C0-C2, C-terminal tagged (mSF1), lacking the 8 amino acid NTE (domain or fragment)
chain: PEPGKKPVSAFNKKPRSAEVTAGSAAVFEAETERSGVMVRWQRDGSDITANDKYGLAAEGKRHTLTVRDASPDDQGSYAVIAGSSKVKFDLKVTEPAPPEKAESEVAPGAPEEVPAPATELEESVSSPEGSVSVTQDGSAAEHQGAPDDPIGLFLMRPQDGEVTVGGSIVFSARVAGASLLKPPVVKWFKGKWVDLSSKVGQHLQLHDSYDRASKVYLFELHITDAQTTSAGGYRCEVSTKDKFDSCNFNLTVHEAIGSGDLDLRSAFRRTSLAGAGRRTSDSHEDAGTPDFSSLLKKRDSFRRDSKLEAPAEEDVWEILRQAPPSEYERIAFQHGVEACHRPLKRLKGMKQDEKKSTAFQKKLEPAYQVNKGHKIRLTVELADPDAEVKWLKNGQEIQMSGSKYIFESVGAKRTLTISQCSLADDAAYQCVVGGEKCSTELFVKEP
Turning to B1, binding was characterised by a dissociation constant (Kd) of 10.7 µM.
